Patent publication US20230287087A1 (MAX PLANCK GESELLSCHAFT ZUR F RDERUNG DER WISSENSCHAFTEN E V, published 2023)
Several values for one entry are separate records, joined by “and”; a condition that tells them apart may be missing. Equal entries are not always repeated.

What was measured:
[1] = biological target: T1, SARS-CoV-2 spike receptor-binding domain (RBD), wild type (SARS-CoV-2, UniProt P0DTC2 319-541); assay: BLI, biotinylated VHH on streptavidin sensor, RBD in solution
[2] = biological target: T2, B.1.617.2/Delta RBD (40592-V08H90, Sino Biologicals) (SARS-CoV-2, UniProt P0DTC2 319-541); assay: as above
[3] = biological target: T3, Spike protein of patient-derived SARS-CoV-2 (D614G) (SARS-CoV-2, UniProt P0DTC2 14-1273); assay: cell-based or functional assay
[4] = biological target: quadruple (K417T, L452R, E484K, N501Y) RBD mutant (SARS-CoV-2, UniProt P0DTC2 319-541); assay: method not stated
[5] = biological target: T1, SARS-CoV-2 spike receptor-binding …; assay: BLI, biotinylated VHH heterodimer on streptavidin sensor, RBD in solution
[6] = biological target: T2, B.1.617.2/Delta RBD (40592-V08H90, Sino …); assay: as above
[7] = biological target: T3, Spike protein of patient-derived …; assay: cell-based or functional assay; remark: listed apart in the source
[8] = biological target: T1, SARS-CoV-2 spike receptor-binding …; assay: method not stated
[9] = biological target: T3, Spike protein of patient-derived …; assay: cell-based or functional assay; remark: listed apart in the source
[10] = biological target: Californian RBD mutant (L452R) (SARS-CoV-2, UniProt P0DTC2 319-541); assay: method not stated

B1: Re9B09 (VHH)
VHH: QVQLVESGGGLVQPGGSLRLSCAASGFTLDYYAIGWFRQAPGKEREGVSRISSSDGSTDYADSVKGRFTISRDNAKNTVYLQMNSLKPEDTAVYYCATVPGTYYSGNWYYTWHPEAVDYWGKGTQVTVSS
[1]
  Kd: ≤ 0.01 nM
[2]
  Kd: 0.1 nM
[3]
  Lowest SARS-COV-2-neutralizing concentration: 170 pM

B2: Re9H03 (VHH)
VHH: QVQLVESGGGLVQPGGSLRLSCAASGFTLDYYAIGWFRQAPGKEREGVSRISSSDGSTDYADSVKGRFTISRDNAKNTVYLQMNSLKPEDTAVYYCATVPGTYYSGNWYYTWHPKAVDYWGKGTLVTVSS
[3]
  Lowest SARS-COV-2-neutralizing concentration: 170 pM
[4]
  fold better binding than Re9B09: 100 fold

B3: Re7E02 (VHH)
VHH: QVQLVESGGGLVQAGGSLRLSCAASGFTLDYYAIGWFRQAPGKEREGVSYIRSSDGTTYYADSVKGRFTISRDNAKNTVYLQMNSLKPEDTAVYYCAADEAYYSELGWESPWGWSYWGQGTQVTVSS
[3]
  Lowest SARS-COV-2-neutralizing concentration: 500 pM

B4: Re9C08 (VHH)
VHH: QVQLVESGGGLVQPGGSLRLSCAVSGNIFGITAWDWHRQAPGKQRELVAHITSRGDTYYLDSVKGRFAISRDHAKNTLSLQMNSLKPEDTAVYYCYLRTFGPPNDHWGQGTQVTVSS
[3]
  Lowest SARS-COV-2-neutralizing concentration: 500 pM

B5: Re9F06-SpacerA-Re9B09 (bispecific antibody)
chain: GSQVQLVESGGGLVQAGGSLRLSCAASGRTFSNDALGWFRQAPRKEREFVAAINWNSGTYYADSVKGRFTISRDNAKNTVYLQMNSLKPEDTAVYSCAAASDYGLPREDFLYDYWGQGTQVTVSSTSGEGEGGEGGEGSQVQLVESGGGLVQPGGSLRLSCAASGFTLDYYAIGWFRQAPGKEREGVSRISSSDGSTDYADSVKGRFTISRDNAKNTVYLQMNSLKPEDTAVYYCATVPGTYYSGNWYYTWHPEAVDYWGKGTQVTVSSTS
[5]
  Kd: ≤ 0.01 nM
[6]
  Kd: ≤ 0.01 nM

B6: Re5D06R15 (VHH)
VHH: QVQLVESGGGLVQPGGSLRLSCAASGITLDYYAMGWFREAPGKEREGVARIRNSDGSTNYADSVKGRFTMSRDNAKDTYYLQMNSLEPEDTADYYCAYGPLTKYGSSWYWPYEYDYWGQGTQVTVSS
[1]
  Kd: ≤ 0.01 nM
[2]
  Kd: 0.03 nM

B7: Re5D06R28 (VHH)
VHH: QVQLVESGGGLVQPGGSLRLSCAISGSTLDYYAMGWFREAPGKEREGVARWRNNDGSTNYADSVKGRFTMSRDNAKDTYYLQMNSLEPEDTADYYCAYGPLTKYGSSWHWPYEYDYWGQGTQVTVSS
[1]
  Kd: ≤ 0.01 nM
[2]
  Kd: 0.08 nM

B8: Re6A11 (VHH)
VHH: QVQLVESGGGLVQAGGSLRLSCAASGRTFSNDALGWFRQAPRKEREFVAAINWNSGTYYADSVKGRFTISRDNAKNTVYLQMNSLKPEDTAVYSCAAASDYGLPREDFLYDYWGQGTLVTVSS
[7]
  Lowest neutralizing VHH concentration: 50000 pM and 750 µg/liter

B9: Re6A11/Re9F06 ColXVIII trimer (VHH)
VHH: QVQLVESGGGLVQAGGSLRLSCAASGRTFSNDALGWFRQAPRKEREFVAAINWNSGTYYADSVKGRFTISRDNAKNTVYLQMNSLKPEDTAVYSCAAASDYGLPREDFLYDYWGQGTLVTVSS
[7]
  Lowest neutralizing VHH concentration: 170 pM and 4 µg/liter

B10: Re9F06 (VHH)
VHH: QVQLVESGGGLVQAGGSLRLSCAASGRTFSNDALGWFRQAPRKEREFVAAINWNSGTYYADSVKGRFTISRDNAKNTVYLQMNSLKPEDTAVYSCAAASDYGLPREDFLYDYWGQGTQVTVSS
[3]
  Lowest SARS-COV-2-neutralizing concentration: 50000 pM

B11: Re5A08 (VHH)
VHH: QVQLVESGGGLVQAGGSLRLSCTASGHTFTANRMGWFRQAPGKEREFVAAINWGGDSTNYVDSVKGRFTISRDIAKNTVYLQMNSLKPEDTAVYFCAARNHVTGEFDSWGQGTQVTVSS
[7]
  Lowest neutralizing VHH concentration: 5000 pM and 75 µg/liter

B12: Re9F06-SpacerA-Re5D06R28D (bispecific antibody)
chain: GSQVQLVESGGGLVQAGGSLRLSCAASGRTFSNDALGWFRQAPRKEREFVAAINWNSGTYYADSVKGRFTISRDNAKNTVYLQMNSLKPEDTAVYSCAAASDYGLPREDFLYDYWGQGTQVTVSSTSGEGEGGEGGEGSQVQLVESGGGLVQPGGSLRLSCAISGSTLDYYAMGWFREAPGKEREGVARWRNNDGSTNYADSVKGRFTMSRDNAKDTYYLQMNSLEPEDTADYYCAYGPLTKYGDEWHWPYEYDYWGQGTQVTVSSTS
[5]
  Kd: ≤ 0.01 nM
[6]
  Kd: ≤ 0.01 nM

B13: Re5F10 (VHH)
VHH: QVQLVESGGGLVQPGGSLRLSCVASGFTFSSFAMGWYRQAPGKECEWVATITITGGSTNYADSVKGRFTISRDNAKNTVYLQMNSLKPEDTAVYYCNPDPGCRRGQGTQVTVSS
[1]
  Kd: 0.04 nM
[2]
  Kd: 0.04 nM
[3]
  Lowest SARS-COV-2-neutralizing concentration: 1700 pM
[4]
  Kd: 0.03 nM
[8]
  Kd: 0.03 nM

B14: Re6B06 (VHH)
VHH: QVQLVESGGGLVQAGGSLRLSCAASGRAFSSAPMSWFRQAPGKEREFVASVSWSGDSTNYADSVKGRFTISRDNAKNTGYLQMNSLKPEDTAVYYCKRGPYWGQGTQVTVSS
[9]
  viral RNA in supernatants of infected cells (qRT-PCR), fold inhibition: ~300 fold
[3]
  Lowest SARS-COV-2-neutralizing concentration: 170000 pM
[7]
  Lowest neutralizing VHH concentration: 50000 pM and 750 µg/liter

B15: Re7H02 (VHH)
VHH: QVQLVESGGGLVQAGGSLRLSCAASGRAFESAPMSWFRQAPGKEREFVASVSWSGDSTNYADSVKGRFTISRDNAENTGYLQMNSLKPEDTAVYYCKRGPYWGQGTQVTVSS
[3]
  Lowest SARS-COV-2-neutralizing concentration: 17000 pM
[7]
  Lowest neutralizing VHH concentration: 17000 pM and 250 µg/liter

B16: Re6D06 (VHH)
VHH: QVQLVESGGGLVQAGASLRLSCAASGRMFGVYRMGWFRQAPGKEREFVAGISTSVGTTNYADSVKGRFTISRDNAKNTVYLQMNSLKPEDTAVYYCAARDPTTYEYDYWGQGTQVTVSS
[3]
  Lowest SARS-COV-2-neutralizing concentration: 500 pM
[7]
  Lowest neutralizing VHH concentration: 1700 pM and 25 µg/liter

B17: Re9B10 (VHH)
VHH: QVQLVESGGGLVQPGGSLRLSCAASGRMFGVYRMGWFRQAPGKEREFVAGISTSVGTTNYADSVKGRFTISRDNAKNTVYLQMNSLKPEDTAVYYCAARDPTTYEYDYWGQGTQVTVSS
[3]
  Lowest SARS-COV-2-neutralizing concentration: 500 pM

B18: Re9H01 (VHH)
VHH: QVQLVESGGGLVQAGDSLRLSCAASGNIFSINAMGWYRQAPGKQRELVAFITSRGSTNYTDSVKGRFTISRDTAKDTVYLQMNSLKPEDTAVYFCRGGYSDYDIYFGSWGQGTQVTVSS
[3]
  Lowest SARS-COV-2-neutralizing concentration: 170 pM

B19: Re10B10 (VHH)
VHH: QVQLVESGGGLVQPGGSLRLSCAASGFTLDYYAIGWFRQAPGKEREGVSRIRSSDGSTTYADSVKGRFTISRDNAKNTVYLQMNSLKPEDTAVYYCAYGPLTKYGSSWYWPYEYDYWGQGTQVTVSS
[3]
  Lowest SARS-COV-2-neutralizing concentration: 50 pM

B20: Re5D06 (VHH)
VHH: QVQLVESGGGLVQPGGSLRLSCAASGITLDYYAIGWFRQAPGKEREGVSRIRSSDGSTNYADSVKGRFTMSRDNAKNTVYLQMNSLKPEDTAVYYCAYGPLTKYGSSWYWPYEYDYWGQGTQVTVSS
[10]
  Kd: ~0.4 nM

B21: Re6B02 (VHH)
VHH: QVQLVESGGALVQPGGSLRLSCVASGFTLDYYAIGWFRQAPGKEREGVSRIRSSDGSTNYADSVKGRFTISRDNAKNTVYLQMNSLKPEDTAVYYCAYGPLTKYGSSWYWPYEYDYWGQGTQVTVSS
[3]
  Lowest SARS-COV-2-neutralizing concentration: 50 pM

B22: Re10F10 (VHH)
VHH: QVQLVESGGGLVQPGGSLRLSCAASGFTLDYYAIGWFRQAPGKEREGVSRIRNNDGSTDYADSVKGRFTISRDNAKNTVYLQMNSLKPEDTAVYYCAYGPLTKYGSSWYWPYEYDYWGQGTQVTVSS
[3]
  Lowest SARS-COV-2-neutralizing concentration: 50 pM

B23: Re7B01 (VHH)
VHH: QVQLVESGGGLVQPGGSLRLSCGASGFTLDYYAIGWFRQAPGKEREGVSRIRSNDGSTDYADSVKGRFTISRDNAKNTVYLQMNSLKPEDTAVYYCAYGPLTKYGSSWYWPYEYDYWGQGTQVTVSS
[3]
  Lowest SARS-COV-2-neutralizing concentration: 50 pM
